Data as given in PMC3039559, “A Blue Native-PAGE analysis of membrane protein complexes in Clostridium thermocellum” (BMC Microbiology, 2011).

Molecular target: the molecule itself
Assay: native gel or EMSA; two-dimensional blue native PAGE (4-15% gel) then SDS-PAGE of the membrane fraction solubilised at 4°C in 1.0% (w/v) DDM; about 40 μg protein; spots identified by MALDI-TOF/TOF; complex mass estimated from BN-PAGE markers

Protein	stoichiometry N
Carboxyl transferase (Cthe_0699) (enzyme, UniProt A3DDA5 1-516, looked up, carboxyl transferase with two carboxyl transferase domains, Clostridium thermocellum ATCC 27405, locus Cthe_0699, 56 kDa; also called spots 4 and 15; source: endogenous, C. thermocellum membrane fraction solubilised with 1.0% DDM) MDKVDKIGLLREKLAQVEQGGGAEKIAKQHDAGKMTARERIQALFDENSFVEIDTFVETRSIDFDMQKKKVPGDGVVTGYGSIDGRLVFVAAQDFTVIGGSLGEMHAAKITKVMDMAMKMGAPFISINDSGGARIEEGIDALKGFGDIFYRNTLASGVIPQISVIMGPCAGGAVYSPAITDFIFMVDKTSQMFITGPQVIKSVTGEDVTFEKLGGAETHNSISGVAHFRSSSEKECIEQIKKLISYLPDNNLSDVPIVPTQDDINRITDNLVDIIPQDSNKPYDMMEIITSVVDNGDFFEIQKDFAKNIIIGFGRMNGGTVGIVANQPKVAAGVLDVNSSDKAARFVRFCDAFNIPIITFTDVPGYLPGVGQEHSGVIRHGAKLLYAFSEATVPKINVIVRKAYGGAYIAMNSKHLGADMVFAWPSAEIAVMGPEGAANIIFKKDIAAADDPMETRKRLIEEYREKFSNPYVAASRGYVDDVIDPATTRIRLISALEMLASKRENRPAKKHGNIPL	4
Ornithine carbamoyltransferase (Cthe_1869) (enzyme, UniProt A3DGL1 1-307, looked up, ornithine carbamoyltransferase, Clostridium thermocellum ATCC 27405, locus Cthe_1869, 34 kDa; also called OTCase; spot 27; source: endogenous, C. thermocellum membrane fraction solubilised with 1.0% DDM) MEHLISLHDLTVEDFESIFKLAEKLKRQQKEGIPHHLLKGKTLGMIFTKSSTRTRVSFEVGMYQLGGYPLFLSANDIQLGRGETIYDTAQVLSRYVDGIMIRTFAQSDVEDLARYGNVPVINGLTDLMHPCQILADLFTIYEHKGTLKGLKLAYVGDGNNVANSLLHGCAKVGMDIAVASPKGYECDSRIVEEAKEDAKASGANILLTEDPEEAIKDADVVYTDTWVSMGQESEKEERIKVFMPYQVNNTLFSKAHEDAIFLHCLPAYRGYEVTEDVIDGSQSVIFDEAENRLHVQKAIMALLMGNK	3
Polynucleotide phosphorylase/polyadenylase (Cthe_0418) (enzyme, UniProt A3DCH7 1-700, looked up, polynucleotide phosphorylase/polyadenylase, Clostridium thermocellum ATCC 27405, locus Cthe_0418, 77 kDa; also called Polyribonucleotide phosphorylase; PNPase; source: endogenous, C. thermocellum membrane fraction solubilised with 1.0% DDM) MYKTFSMELAGRTLTIETGKLAQLANGSVLVRYGDTVVLSTATASATPREGVDFFPLSVDYEERLYAVGKIPGGFIKREGKPSEKAILTARVIDRPLRPLFPKDLRNDVAIVNTVLSVDQDNSPELAALLGSSIAVSISDIPFNGPVGAVILGLIDGEVIINPTEKQKEISQMYVTLAGTRNKIVMIEAGANEVPDEVMLDAIKKGHEEIKKIVDFIDGIVKEVGKPKFEYESAEVPEEIFNAVREYAYDKMREAVLAVDKQVRDKNIDDLTKEITEHFAEVFPEMEPAIKEAIYKLEKKVVREYILEEGRRVDGRRLDEIRPLSAEVGLLPRVHGSGLFTRGQTQVLSSVTLGAMGDVQILDGIDTEETKRYMHHYNFPGFSVGEAKSSRGPGRREIGHGALAERALEPVIPSEEEFPYTIRVVSEVLMSNGSTSQGSVCGSTLALMDAGVPIKKPVAGISAGLVVDENNPDRFVTFMDIQGIEDFFGDMDFKVAGTKDGITAIQVDIKIDGLTEEIIKQAFELTRKGRLYIIDNVLLKAIPEPRKQMSKYAPKIISTTINPDKIREVIGPGGKMINKIIDETGVKIDINDDGRVYIFSSDIQAGKRARSMIEAIAKDIEPGQVFLGRVIRVTSFGAFVEFLPGKEGLVHISKLDKKRVERVEDIVRVGDQILVKVIEIDKQGRVNLSRKDAMEDEWDK	2
Ferritin and Dps (Cthe_0016) (natural protein, UniProt A3DBC9 1-159, looked up, ferritin (annotated Ferritin and Dps), Clostridium thermocellum ATCC 27405, locus Cthe_0016, 18.6 kDa; also called spots 6 and 7; source: endogenous, C. thermocellum membrane fraction solubilised with 1.0% DDM; copies: 24) MSKLYDNLNEQMNFELESAYIYATMSAYLDSLNMKGMTHFFDEQVKEEMEHAGKIKKFLQDTGYGIKYRPLNPGDGKFDSIEDVFKKALAHEKTVTSRINDLVKQAREEGDQRVLNLLAWFVDEQIEEENMFGVLVERLERINGHWNGLYILDKELGER	24
ABC transporter related protein (Cthe_3148) (natural protein, UniProt A3DK64 1-632, looked up, ABC transporter related protein with fused ABC and IM domains, Clostridium thermocellum ATCC 27405, locus Cthe_3148, 70 kDa; also called ABC transporter with fused ABC and IM domains; Class 1 ABC transporter; source: endogenous, C. thermocellum membrane fraction solubilised with 1.0% DDM) MENNVKKNKKSIVLRLFKDILEFYPVMLPVAIVCILFNATISSIPAVFMQNVIAIVENNWRTGDWNAVGGRILSLVAVLVAFYTLSILSGIAYNQMMAIITQGTLKKFRCKMFARMQTLPIKYVDTHNHGDIMSVYTNDIDTLRQMISQSFPQLLLSGITVLTVFSIMVYFCLWLTIIVLIGVIAMFFVTRRVGGGSAKYFIRQQKALGRVEGFIEEMMNGQKVIKVFCREEEVKKDFDKLNEALFDDARKANRYANILAPILNNIGNVLYVFVAITGGVLLVTNAPNVSLSGLSMGISIVVPFLNMTKQFVGNINQVSQQINAVIMGLAGAQRIYELIDEEPEQDDGYVTLVNVREENGQLIECEERTGIWAWKHPHSSDGSVTYTKLMGDVRLFNVDFEYEPGKSVLHDISLYAKPGQKVAFVGATGAGKTTITNLLNRFYDIADGKIRYDGININKIKKSDLRRAVGIVLQDTNLFTGTVMDNIRYGKLDATDEECIAAAKLAGADDFIRRLPDGYYTMLTENGANLSQGQRQLISIARVAVADPPVMILDEATSSIDTRTEAIVQRGMDALMEGRTVFVIAHRLSTVKNANVIIVLDHGRIIERGTHEELIAQKGQYYQLYTGAFELE	2
